What was measured:
[1] = biological target: T1, human α-Synuclein pre-formed fibrils (human, UniProt P37840 1-140); experiment: sandwich ELISA; PFF vs monomer from EC50s, Syn211 as control
Experimental: Fibrils were then sonicated on high for 10 cycles of 30 seconds on, 30 seconds off (Diagenode Biorupter UCD-300 bath sonicator) prior to dilutions. Dilutions were added to each well (30 μL per well) and incubated overnight at 4° C. The plate was washed 4 times with PBST. 30 μL of MJF-R1 (1:3,000, Abcam Cat #ab138501) in Buffer C was added to each well and the plate was incubated for 4 hours at 37° C. After washing with PBST 4 times, 1:10 k diluted goat-anti-rabbit IgG-HRP conjugate (Cell Signaling Technology) was added to the plate and the plate was incubated for 1 hour at 37° C.
This assay retains the conformation of α-Synuclein by allowing binding of α-Synuclein that is in solution to immobilized antibody, and allows a broad range of affinity detection. Antibodies of interest were coated on an ELISA plate and either α-Synuclein monomer or PFF were incubated with the antibodies at increasing α-Synuclein concentrations to determine relative affinity of the antibodies for each form of α-Synuclein.
By fitting the absorbance values with a sigmoid dose curve, EC₅₀ values were calculated for each antibody.

Lewy body α-Synuclein = Lewy body α-Synuclein (human, UniProt P37840 1-140); experiment: IHC, human amygdala; OD of Lewy bodies / OD of tissue
Text: FIG. 2A: Sections of amygdala tissue containing abundant Lewy body pathology were stained using undiluted or 1:3 diluted hybridoma supernatant. […] FIG. 2B: The optical density within Lewy bodies divided by the optical density of a 1 mm² tissue section containing those Lewy bodies was defined as the Lewy Body Discrimination Index. Antibodies preferentially recognizing Lewy bodies score high on this measure.
In order to rapidly screen for antibody selectivity to pathological α-Synuclein, amygdala sections from PD patients with abundant LB pathology were immunostained. Hybridoma supernatants were used undiluted or at a 1:3 dilution on screening slides processed in parallel to allow direct comparison of immunostaining. […] A value of 1 indicates no discrimination of LBs over normal synaptic neuropil staining.

[2] = biological target: T1, human α-Synuclein pre-formed fibrils; experiment: cell-based or functional assay

PFF Preference [1]	LB Discrimination Index (Lewy body α-Synuclein)	% Inhibition (primary neuron assay) [2] [%]	Binder
0.73	1.92	83.8	9060 (antibody, IgG1, V domains shown) VH: EVHLVESGGGLVQPKGSLKLSCAASGFTFNTYAMHWVRQAPGKGLEWVARIRNKSNNYATYYADSVKDRFTISRDDSQSMLFLQMDNLKTEDTAIYYCVRGGLSPFDYWGQGTTLTVSS VL: QIVLTQSPAIMSASPGEKVTMTCSASSSVTYMHWYQQKSGTSPKRWIYDTSKLASGVPARFSGSGSGTSYSLTISSMEAEDAATYYCQQWSSNPPTFGGGTKLEIR
0.605	1.89	79.3	9071 (antibody, IgG1, V domains shown) VH: EVHLVESGGGLVQPKGSLKLSCAASGFTFNTYAMHWVRQAPGKGLEWVARIRNKSNNYATYYADSVKDRFTISRDDSQSMLFLQMDNLKTEDTAIYYCVRGGLSPFDYWGQGTTLTVSS VL: QIVLTQSPAIMSASPGEKVTMTCSASSSVTYMHWYQQKSGTSPKRWIYDTSKLASGVPARFSGSGSGTSYSLTISSMEAEDAATYYCQQWSSNPPTFGGGTKLEIR
0.855	1.95	88.1	9064 (antibody, IgG1, V domains shown) VH: EVHLVESGGGLVQPKGSLKLSCAASGFTFNTYAMHWVRQAPGKGLEWVARIRNKSNNYATYYADSVKDRFTISRDDSQSMLFLQMDNLKTEDTAIYYCVRGGLSPFDYWGQGTTLTVSS VL: QIVLTQSPAIMSASPGEKVTMTCSASSSVTYMHWYQQKSGTSPKRWIYDTSKLASGVPARFSGSGSGTSYSLTISSMEAEDAATYYCQQWSSNPPTFGGGTKLEIR
0.533	1.73	81.6	9110 (antibody, IgG1, V domains shown) VH: EVHLVESGGGLVQPKGSLKLSCAASGFTFNTYAMHWVRQAPGKGLEWVARIRNKSNNYATYYADSVKDRFTISRDDSQSMLFLQMDNLKTEDTAIYYCVRGGLSPFDYWGQGTTLTVSS VL: QIVLTQSPAIMSASPGEKVTMTCSASSSVTYMHWYQQKSGTSPKRWIYDTSKLASGVPARFSGSGSGTSYSLTISSMEAEDAATYYCQQWSSNPPTFGGGTKLEIR
0.507	1.82	81	9009 (antibody, IgG1, V domains shown) VH: EVQLVESGGGLVQPKGSLKLSCAASGFTFNTYAMHWVRQAPGKGLEWVARIRSESNNFATYYADSVKDSFTISRDDSQSMLYLQMNNLKTEDTAVYYCVRGGLSPFDYWGQGTTLTVSS VL: QIVLTQSPAIMSASPGEKVTMTCSASSSVSYMHWYQQKSGTSPKRWIYDTSKLASGVPARFSGSGSGTSYSLTINSMEAEDAATYYCQQWSRNPPTFGGGTKLEIK
0.565	1.94	82	9003 (antibody, IgG1, V domains shown) VH: EVQLVESGGGLVQPKGSLKLSCAASGFTFNTYAMHWVRQAPGKGLEWVARIRSESNNFATYYADSVKDSFTISRDDSQSMLYLQMNNLKTEDTAVYYCVRGGLSPFDYWGQGTTLTVSS VL: QIVLTQSPAIMSASPGEKVTMTCSASSSVSYMHWYQQKSGTSPKRWIYDTSKLASGVPARFSGSGSGTSYSLTINSMEAEDAATYYCQQWSRNPPTFGGGTKLEIK
0.478	1.87	81.7	9014 (antibody, IgG1, V domains shown) VH: EVQLVESGGGLVQPKGSLKLSCAASGFTFNTYAMHWVRQAPGKGLEWVARIRSESNNFATYYADSVKDSFTISRDDSQSMLYLQMNNLKTEDTAVYYCVRGGLSPFDYWGQGTTLTVSS VL: QIVLTQSPAIMSASPGEKVTMTCSASSSVSYMHWYQQKSGTSPKRWIYDTSKLASGVPARFSGSGSGTSYSLTINSMEAEDAATYYCQQWSRNPPTFGGGTKLEIK
1.02	1.91	62.7	9004 (antibody, IgG2b, V domains shown) VH: EVHLVESGGGLVQPKGSLKLSCAASGFTFNTYAMHWVRQAPGKGLEWVARIRSKSNNYATYYADSVKDRFTISRDDSQSMLYLQMNNLKTEDTAMYYCVRGGLSPFDYWGQGTTLTVSS VL: QIVLTQSPAIMSASPGEKVTMTCSASSSVTYMHWYQQKSGTSPKRWIYDTSKLASGVPARFSGSGSGTSYSLTISSMEAEDAATYYCQQWSSNPPTFGGGTKLEIR
133	2.46	84.3	9047 (antibody, IgG2b, V domains shown) VH: EVQLVESGGGLVKPGGSLKLSCGASGFTFSSFAMSWVRQTPEKRLEWVATISNGGSYTYYPDSVKGRFTISRDNAKNTLYLRMSSLRSEDTALYYCTRRSSTRGFFDYWGPGTTLTVSS VL: QIFLTQSPAIMSASPGEKVTMTCSASSSVTYMYWYQQNPGSSPRLLIYDSSKLASGVPVRFSGSGSGTSYSLTISRMEAEDATTYYCQQWKSYPPTFGTGTKLDLK
1.31	1.68	90.3	9005 (antibody, IgG1, V domains shown) VH: EVMLVESGGGLVKSGGSLKLSCAASGFTFSSYAMSWVRQTPEKRLEWVATISTGGGYTYYPDSVKGRFTISRDNAKNTLYLQMSSLRSEDTAMYYCVRRGTARGYFDVWGAGTTVTVSS VL: QIVLTQSPAIMSASPGEKVTMTCSASSSVSYMYWYQQKPESSPRLLIYDTSNLASGVPVRFSGSGSGTSYFLTISRMEAEDAATYYCQQWKTYPPTFGGGTKLEIK
5.26	1.47	85.3	9099 (antibody, IgG2b, V domains shown) VH: EVQLVESGGVLVKPGGSLKLSCAASGFTFSSFAMSWVRQTPEKRLEWVATISNGGSYTYYPDSVKGRFTISRDNAKNTLYLRMSSLRSEDTAMYYCVRRATTRGYFDYWGQGTTLTVSS VL: QIFLTQSPAIMSASPGEKVTMTCSASSSVSYMYWYQQKPGSSPRLLIYDSSKLASGVPVQFSGSGSGTSYSLTISRMEAEDAATYYCQQWRSYPPTFGAGTKLELK
1.47	1.74	84.3	9052 (antibody, IgG2b, V domains shown) VH: EVQLVESGGVLVKPGGSLKLSCAASGFTFSSFAMSWVRQTPEKRLEWVATISNGGSYTYYPDSVKGRFTISRDNAKNTLYLRMSSLRSEDTAMYYCVRRATTRGYFDYWGQGTTLTVSS VL: QIFLTQSPAIMSASPGEKVTMTCSASSSVSYMYWYQQKPGSSPRLLIYDSSKLASGVPVQFSGSGSGTSYSLTISRMEAEDAATYYCQQWRSYPPTFGAGTKLELK
2.73	1.62	91.3	9100 (antibody, IgG2b, V domains shown) VH: EVQLVESGGVLVKPGGSLKLSCAASGFTFSSFAMSWVRQTPEKRLEWVATISNGGSYTYYPDSVKGRFTISRDNAKNTLYLRMSSLRSEDTAMYYCVRRATTRGYFDYWGQGTTLTVSS VL: QIFLTQSPAIMSASPGEKVTMTCSASSSVSYMYWYQQKPGSSPRLLIYDSSKLASGVPVQFSGSGSGTSYSLTISRMEAEDAATYYCQQWRSYPPTFGAGTKLELK
1	1.81	84.7	9021 (antibody, IgG1, V domains shown) VH: EVMMVESGGGLVKPGGSLKLSCAASGFTFSNYAMSWVRQTPEKRLEWVATISTGGGYTYYPDSMKGRFTISRDNAKNTLYLQMSSLRSEDTAMYYCARRGTARGYFDVWGAGTTVTVSS VL: QIVLTQSPAIMSASPGEKVTMTCSASSSVSYMYWYQQKPESSPRLLIYDTSNLASGVPVRFSGSGSGTSYFLTISRMEAEDAATYYCQQWKTYPPTFGGGTKLEIK
1.45	1.78	86.5	9018 (antibody, IgG2b, V domains shown) VH: EVMLVESGGGLVKPGGSLKLSCAASGFTFSSYAMSWVRQTPEKRLEWVATISTGGGYTYYPDSVKGRFTVSRDNAKNTLYLQMSSLRSEDTAMYYCARRGTSRGYFDVWGAGTTVTVSS VL: QIILTQSPAIMSASPGEKVTMTCSASSSVSYMYWYQQKPESSPRLLIYDTSNLASGVPVRFSGSGSGTSYFLTISRMEAEDAATYYCQQWKTYPPTFGGGTRLEIK
1.01	1.3	85.1	9096 (antibody, IgG2b, V domains shown) VH: EVQLVESGGGLVKPGGSLKLSCAASGFTFSGYAMSWVRQTPEKRLEWVATISNGGSYTYYPDSVKGRFTISRDNAKKTLYLQMSSLRSEDTAMYYCTRRAATRGYFDYWGQGTTLTVSS VL: QIVLTQSPAIMSASPGEKVTMTCSASSSVSYMYWYQQKPGSSPRLLIYDTSKLASGVPVRFSGSGSGTSYSLTISRMEAEDAATYYCQQWRSYPPTFGAGTKLELK
2.11e+08	1.9	79	9035 (antibody, IgG2b, V domains shown) VH: EVQLVESGGGLVKPGGSLKLSCGASGFTFSSFAMSWVRQTPEKRLEWVATISNGGSYTYYPDSVQGRFTISRDNAKNTLYLRMSSLRSEDTAMYYCARRSSTRGFFDYWGHGTTLTVSS VL: QIFLTQSPAIMSASPGEKVTMTCSASSSVSYMYWYQQKPGSSPRLLIYDSSKLASGVPVQFSGSGSGTSYSLTISRMEAEDAATYYCQQWRSYPPTFGAGTKLELK
93.8	1.9	-27.9	9092 (antibody, IgG1, V domains shown) VH: QVQLQQSGPELVKPGASVRISCKASGYTFTTFYLHWVKQRPGQGLEWIGWIYPVNVKIKYSERFKGKATLTADKSSSTAYMQLGSLTSEDSAVYFCVRGGRGLDYWGQGTTLTVSS VL: NIMMTQSPSSLAVSAGEKVTMSCKSSQSVLYSSNQKNYLAWYQQKPGQSPKMLIYWASFRESGVPDRFTGSGSGTDFTLTISSVQAEDLAVYYCHQYLSLFTFGSGTKLEIK
